From publication PMC7755189, “Phosphorylation of seryl-tRNA synthetase by ATM/ATR is essential for hypoxia-induced angiogenesis” come the findings set out here.

The data set concerns the target SerRS AA (Homo sapiens, UniProt P49591 1-514, S101A;S241A). The experiment in a line: EMSA; not attenuated relative to WT; EMSA: 20 mM Tris-HCl pH 8.0, 60 mM KCl, 5 mM MgCl2, 0.1 mg/mL BSA, 10 ng/uL poly(dG-dC), 1 mM DTT, 30 min, room temperature; 0.08 pmol labeled DNA; 5% native PAGE. As to conditions: protein: recombinant; tags: C-terminal His6; chain copies: 2; label: 5'-32P; annealed oligonucleotides.

Chain of SerRS AA (P49591 whole entry S101A/S241A): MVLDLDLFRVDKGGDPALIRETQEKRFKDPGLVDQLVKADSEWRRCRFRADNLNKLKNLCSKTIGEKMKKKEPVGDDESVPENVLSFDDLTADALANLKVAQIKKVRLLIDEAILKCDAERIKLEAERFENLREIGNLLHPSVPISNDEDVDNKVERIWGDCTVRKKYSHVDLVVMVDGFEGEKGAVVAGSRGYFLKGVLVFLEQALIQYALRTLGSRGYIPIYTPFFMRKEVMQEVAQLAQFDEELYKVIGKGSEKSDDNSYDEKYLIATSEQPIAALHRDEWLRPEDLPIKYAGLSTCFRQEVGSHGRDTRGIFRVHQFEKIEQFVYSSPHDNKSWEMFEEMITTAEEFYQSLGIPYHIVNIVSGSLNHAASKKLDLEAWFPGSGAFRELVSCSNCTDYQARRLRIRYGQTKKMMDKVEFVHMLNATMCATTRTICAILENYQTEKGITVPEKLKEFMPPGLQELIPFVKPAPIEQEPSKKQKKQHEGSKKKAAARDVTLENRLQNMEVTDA

B1: VEGFA promoter SerRS binding site 27 bp (dsDNA)
DNA 1: GGCGGGGCGGAGCCATGCGCCCCCCCC
DNA 2: GGGGGGGGCGCATGGCTCCGCCCCGCC
In the case of B1, the binding result is “binds”.
